The text below walks through data of the nanobody polyreactivity screen of Harvey et al. (2022).

The nature of the data set: yeast display, Sf9 membrane polyspecificity reagent, FACS + sequencing; frameworks hold sequencing errors. Put shortly: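 Using colony PCR, genes from sorted yeast display clones were amplified, then sequenced on MiSeq at 2 × 250 and filtered by CDR length. The clones had been stained with 10% biotinylated, detergent-solubilized Sf9 membrane reagent for 1 hour at 4 °C and sorted by FACS into low and high (top ~1%) gates on anti-HA and streptavidin fluorescence. Polyreactivity labels come from the gate of origin.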
With “QVQLVESGGGLVQAGGSRRLSCAASGRIFSQNTRGCYRQAPAKERELVAVISWRCGRTSYSDSVKGRFTISRDNSKNTVFLKMKSLKQEDTAVYYCAASAKLHYYRTYRYNYWGQGTQVTVSS”, the “polyreactivity (PSR sort gate)” value is listed as “high polyreactivity”.
As for “QVQLVESGGGLVQAGGSLRLSCAASGFIFDINAIGWYRQAPGKERELVAAISYSGGSTYYADSVKGRFTISRDNAKNTVYLQMNSLKPEDTAVYYCAADSGPDSDEGDYWGQGTQVTVSS”, the “polyreactivity (PSR sort gate)” value was “low polyreactivity”.
As to “QVQLVESGGGLVQAGGSLRLRCAASGYTFPSNAKGWYRQAPGKERELVAPISSGGRTNYADSVKGRFTISRDNAKNTVYLLMKSLKPEDTAVYYSNADGGPGYPRAYDYWGQVTQVTVSS”, the “polyreactivity (PSR sort gate)” value is “low polyreactivity”.
Under “QVQLVESGGGLVQAGGSLRISCAASGITFNKNDMGWYRQAPGKERELVAAISGRGGSTYYADSVKGRVTISRDNAKNTVYLQMNSLKPEDTAVYYCAADNFKGDSYGTGNYDYWGQGTQVTVSS” stands “high polyreactivity”.
Then “QVQLVESGGALVQAGGSLRLSCAASGSIFTGYAMGWYRQAPGKERELVAAISSRGGSTYYADSVKGRFTISRDNATNTVYLQMNSLKPEDTAVYYCNAVYSGRFLRRDYWGQGTQVTVSS”, with “high polyreactivity”; and “QVQLVESGGGLVQAGGSLRLSCAASGGTFQYYTMGWYRQAPGKERELVAGISSGGSTYYADSVKGRFTISRDNAKNTVYLQMNSLKPEDTAVYYCNAVSRRKTYGYRIIKYDYWGQGTQVTVSS”, with “high polyreactivity”.
On to “QVQLVESGAALVQAGGSLSLSCAASGLTFYYYAMGWYRQAPGKERELVAAITSGGSTNYADSVKGRFTISRDNAKNTVFLQINSLKPEDTAVYYCAADPRYSFWGMYYWGLGTQVTVSS”, for which the “polyreactivity (PSR sort gate)” value is given as “low polyreactivity”.
With “QVQLQESGGGLVQAGGSLRLICSASGTNFTARFIGWYRQAPGKERELVATITDGGNTNHADSVKGRFTISRDNAKNTVFLQMNSLKPEDAAVYYCAAGEVDIDTLLYWGQGSQVTVSS”, the “polyreactivity (PSR sort gate)” value was “low polyreactivity”.
Then “QVQLVESGGGLVQAGGSLRLSCAASGFIFYRYAMGWYRQAPGKERELVAAISRSGGSTYYADSVKGRFTISRDNAKNTVYLQMNSLKPEDTAVYYCAADRGSLAPGNDYWGQGTQVTVSS”, with “high polyreactivity”; and “QVQLVESGGGLVQAGGSLRLSCAAYGSTFDRNAMGWYRQAPGKERDLVAAISWRGGSTYYSDSVKGRFTISRDNAKNTVYLQMNSLKPDDTAVYYCNKVVTWQGPYDYWGQGTQVTVSS”, with “high polyreactivity”.
For “QVQLVESGGGLVQAGGSLRLICAASGRTFGGYAMGWYRQAHGKERELVAAISDRGTSTYYADSVKGRFTISRDNAKYTVYLQMNSVKPEDTAVYYCAASSARRRMDYWGQGTQVTVSS”, the “polyreactivity (PSR sort gate)” value is reported as “high polyreactivity”.
For the sequence “QVQLVESGGGLVQAGRSLRLSCAASGITLYNYAMGWYRQAPGKERELVAAISLSGGRTYYADSVKGRFTISRDNAKNTVYLQMYSLKPEDTAVYYCAADWLNSDPYNYWGQGTQVTVSS”, the “polyreactivity (PSR sort gate)” value was “low polyreactivity”.
As to “QVQLVESGGGLVQAGGSLRLSCAPSGRYYAMGWNRQAPGKEREMVAAISSGGSTNYADSVKGRFTISRDNAKNTVYLQMNSLKPEDTAVYYCAALIRQLRYYLYYYWGQGTQVTVSS”, the “polyreactivity (PSR sort gate)” value is listed as “high polyreactivity”.
Under “QVQLVESGGGLVQAGGSLRLSCAASGFIYRVYAIGWYRQAPGKERELVAAITGNGVSTYYADSVKVRFTISRDNAKNTVYLQMNSLKPEDTAVYYCATYGRRWYSSRRLDYWGQGTQVTVSS” stands “low polyreactivity”; under “QLQLVESGGGLVQAGGSLRLSCAASGRIFQDNPKGWYRPPPSKERELVAAISISGGITYYADSVKGRFTISRDNAKNTVYLQMNSLKPEDTAVYYCNKSISARLPGRYDYWGQGTQVTVSS”, “low polyreactivity”.
Regarding “QVQLVESGGGLVQAGGSLRLSSAPSGSTFPGYAMGWYRQAPGKERQLVAAITGRGTSTYYADSVKGRFTISRDNAKNTVYLQMNSLKPEDTAVYYCAPYATFPTRYYYWGQGTQVTVSS”, the “polyreactivity (PSR sort gate)” value is “high polyreactivity”.
Take “QVQLVESVGGLVQAGGSLRLSCAASGRTFGTYAMGWYRQAPGKERELVAAISTRGGRTFYADSVKGRFTISRDNAKNTVYLQMNSLKPEDTAVYYCAKGVFTWGVFRVGIRDDYWGQGTQVTVSS”: the “polyreactivity (PSR sort gate)” value was “high polyreactivity”.
Then “QVQLVETGGGLVHAGGSLRLSCAASGSIFYAYDMGWYRQAPGKERELVAAINWSGDSTYYADSVKGRVTISRDNANNTVYLQMNSLKPEDTAVYYCAAVSGSGDSGEYDYWGQGTQVTVSS”, with “low polyreactivity”; and “QVQLVESGGGLVQAGGSLRLSCAASGSTFSSYAMGWYRQAPGKERELVAAITSGGSTNYADSVKGRFTISRDNAKNTVYLQMNSLKPEDTAVYYCNAQINDFIFVYDYWGQGTQVTVSS”, with “low polyreactivity”.
With “QVQLVESGGGLVQAGGSLRLSCAASGGTFDYYAMGWYRQAPGKERELVAAISTSGGRTYYADSVKGRFTISRDNAKNTVYLQMNSLTPEDTAVYYCAALSRRAKYDSFYYWGQGTQVTVSS”, the “polyreactivity (PSR sort gate)” value is “high polyreactivity”.
As for “QLQLVESGGGLVQAGGSLRLSCAASGSTFRNNAMGWYRQAPGKERELVAAISRGGGSTYYADSVKWRFTISRDNAKNTVYLQMNSLKPDDTAVYYCARRPTGIYDYWGQGTQVTVSS”, the “polyreactivity (PSR sort gate)” value was “high polyreactivity”.
Then “QVQLVESGGGLVQAGGSLRLSCAASGFIFVKYDMGWYRQAHGKERELVAAITTSGTGTFYADSVKGRFTISRDNAKNTVDLQMNSLKPEDTAVYYCNSLGHPGDDWGQGTQVTVSS”, with “low polyreactivity”; and “QVQLVESGGGLVQAGGSLRLSCAASGFTFQYYAMGWYRQAPGKERELVAAISWSGASTYYADSVKGRFTISRDNAKNTVYLQMNSLKPEDTAVYYSAAKYYRDRDWGQGTQVTVSS”, with “high polyreactivity”.
For the sequence “QVQLVESGGGLVQAGGSLRLSCAASGSTFQFNAMGWYRQAPGKEREFVAAITSSAGRTYYADSVKGRFTISRDNAKNTVYLQMNSLKPEDTAVYYCAATFYRRYVDLGYWGQGTQVTVSS”, the “polyreactivity (PSR sort gate)” value is reported as “high polyreactivity”.
On to “QVQLVESGGGLVQAGGRLRLSCAASGSTLDPYAMGLYRQAPGKERELVAAITISGGTTYNADSVKGRFTISRDNAKNTVYLQMNSMKPEDTAVYYCAAEGTYVTLGYYNLDVRYDYWGQGTQVTVSS”, for which the “polyreactivity (PSR sort gate)” value was “low polyreactivity”.
Turning to “QVQLVESGGGLVQAGGSLRLRGAASGFTFLYYAMGWYRQAPGKERELVAAITWSGDSTYYADSEKGRFTISRDYAMNTVYLQMNSLKPEDTAVYYCATGGVTFGSVVRGVDGDYWGQGTQVTVSS”, the “polyreactivity (PSR sort gate)” value is on record as “low polyreactivity”.
As for “QDQLVESGGGLVQAGGSLRLSCAASGRTFNYYGMGWYRQAPGKERELVAAISRGGTTNYADSVKGRFTISRDNAKNTVYLQMNSLKPEDTAVYYCAKGRSHWHSYQYVRPNYDYLGQGTQVTVSS”, the “polyreactivity (PSR sort gate)” value is “high polyreactivity”.
“QVQLVESGGGLVQAGGSLRLSCAASGSIFKYFTMGWYRHAPGKERELVAYISSGGSTKYADSVKGRFTISRDNAKNTVYLQMNSLKPEDTAVYYCAKRYYYFYPDYDYWGQGTQVTVSS”: the “polyreactivity (PSR sort gate)” value is listed as “high polyreactivity”.
For the sequence “QVQLVESGGGLVQAGGSLRLSCAASGRNFTSNSMGLYRQAPGKEREFVAAITTSGASTRYADSVKGRFTISRDNAKNTVYLQMNSLKPEDTAVYYCAAEQRRFTGYDYWGQGTQVTVSS”, the “polyreactivity (PSR sort gate)” value is “high polyreactivity”.
“QVQLVESGGGLVQAGGSLRLSCAASGRTFVPYAMGWYRQAPGKEREFVAAISSRVGSTYYADSVKGRFTISRDNAKNTVYLQMNSLKPEDTAVYYCNAPFKPAGFYSAWKYDYWGQGTQVTVSS”: the “polyreactivity (PSR sort gate)” value is “low polyreactivity”.
Take “QVQLVESGGGIVQAGGSLRLSCAASGYIFDHYAMGWYRQAPGKERELVAAISRSAGSTYYADSVKGRFTISRDNAKNTVYLQMKSLKPEDTAVYYCNAVVAVRSWRKYEYWGQGTQVTVSS”: the “polyreactivity (PSR sort gate)” value is “high polyreactivity”.
Turning to “QVQLVESGGGLVQAGGSLRLSCAASGSIFGGYDMGWYRQAPGTERELVAAITRDGDTNYADSVKGRFTISRDNAKNTVYLQMNSLKPEDTAVYYCAADRWLYSWFFNYDQGDYWGQGTQVTVSS”, the “polyreactivity (PSR sort gate)” value is given as “low polyreactivity”.
Turning to “QVQLVESGGGLVQAGGSLRLSCAASGFTFGYNDMGWYRQATGKVRELVAGIRSGDDTNYADSVKGRFTISRDNAKNTVYLQMNSLKPEDTAVYYCAVGYGDYLYYDYDYWGQGTQVTVSS”, the “polyreactivity (PSR sort gate)” value is reported as “low polyreactivity”.
In the case of “QVQLEESGGGLVQAGGSLRLSCAASGMILTYYAMAWNRQAPGKERELVAGISSGTNTNYADSVKWRFTISRDNAKNTVYLQMNSLKPEDTAVYYCANTRGYEFVAYGYWGQGTQVNVSS”, the “polyreactivity (PSR sort gate)” value is reported as “low polyreactivity”.
In the case of “QVQLEESGGGLVQAGGSLRLSCAASGRTFKINAMGWYRQAPGKERELVAAIRRRGGSTYYADSVKGRFTISRDNAKNTVYLQMNSLKPEDTAVYYCAKTSWPYRVPSDSVAYDYWGQGTQVTVSS”, the “polyreactivity (PSR sort gate)” value was “low polyreactivity”.
Regarding “QVQLVESGGGLVQAGGSLRLSCAASGSIISYYAMGWYRQAPGKEWELVAAISWSGGSTYYADSVKGRFTISRDNAKNTVYLQRNSLTPEDTAVYYCAKYAYPRSRYTPYGSYDYWGQGTQVTVSS”, the “polyreactivity (PSR sort gate)” value was “high polyreactivity”.
Regarding “QVHLVESGGGLVKAGGSLRLSCAAYGRIFSYNDMGWYRQSPGKDRELVAAISSSGGRTYYADSVKGSFTISRDNAKNTVYLQMNSMKPEDTALYYCNVLGYSYWGQGTQVTVSS”, the “polyreactivity (PSR sort gate)” value is “high polyreactivity”.
As for “QVQLVESGGGLVQAGGSLRLSCAASGSIFYAYAMGWYRQAPRKERELVAAITRSGGSTYYADSVKGRFTISRDNAKNTVYLQMNSLKPEDTAVYYCAAVSRSRRMDFWGQGTQVTVSS”, the “polyreactivity (PSR sort gate)” value is “high polyreactivity”.
Under “QVQLVESGGGLVQAGGSLRLSCAASGGTFAFYAMGWYRQAPGKERELVAAITSGGRTYYADSVKGRFTISRDNAKNTVYLQMKRLKPEDTAVYYCNADWVDHYYVGYDYWGQGTQVTVSS” stands “low polyreactivity”; under “QVQLVESGARLVQAGGSLRLSCAASGRTFSTYTMGWYRQAPGKERELVAAITSSGGGTYYADSVKGRFTISRDTAKNTVFLQMNSLKPEDTAVYYCATVRTYRPPVRRGYWGQGTQVTVSS”, “high polyreactivity”.
In the case of “QVQLVESGGGLVQAGGSLRLSCAASGSIFERYAMGWYRQAPGKERELVAAITWTGGSTYYADSVKGRFTISRDNAQNTVYLQMNSLKPEDTAVYYCAADYLYPLWGWYDYWGQGTQVTVSS”, the “polyreactivity (PSR sort gate)” value is “low polyreactivity”.
